Source: the supplement of paper PMC9112550, “Optimization of the antimicrobial peptide Bac7 by deep mutational scanning” (BMC Biology, 2022)

Tested on: Escherichia coli TOP10
Assay: shrunken log2 fold change of peptide-encoding DNA abundance (4.5 h post-induction vs induction); higher = less antimicrobial activity (less host growth inhibition)
Conditions: time post-induction: 4.5 h; library: site-saturation at positions 5, 18, 19, 20
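Further: peptides expressed intracellularly from a pBAD plasmid library in pooled LB shake-flask culture, induced with 0.3% L-arabinose, DNA abundance read by NGS, three biological replicates, DESeq2 with apeglm shrinkage.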

Sequence	shrunken log2 fold change
RRIRRRPPRLPRPRPRPIDMPRP	0.0233
RRIRRRPPRLPRPRPRPIEQPRP	0.0304
RRIRRRPPRLPRPRPRPIFAPRP	0.355
RRIRRRPPRLPRPRPRPIFFPRP	0.261
RRIRRRPPRLPRPRPRPIFRPRP	0.584
RRIRRRPPRLPRPRPRPIHNPRP	-0.329
RRIRRRPPRLPRPRPRPIIGPRP	0.327
RRIRRRPPRLPRPRPRPIITPRP	-0.253
RRIRRRPPRLPRPRPRPILIPRP	0.118
RRIRRRPPRLPRPRPRPINCPRP	-0.129
RRIRRRPPRLPRPRPRPINLPRP	-0.00491
RRIRRRPPRLPRPRPRPINQPRP	0.0137
RRIRRRPPRLPRPRPRPINYPRP	-0.196
RRIRRRPPRLPRPRPRPIPVPRP	0.265
RRIRRRPPRLPRPRPRPIRNPRP	0.113
RRIRRRPPRLPRPRPRPIRTPRP	0.4
RRIRRRPPRLPRPRPRPISNPRP	-0.269
RRIRRRPPRLPRPRPRPIVGPRP	0.0287
RRIRRRPPRLPRPRPRPIVNPRP	-0.205
RRIRRRPPRLPRPRPRPIVTPRP	0.0446
RRIRRRPPRLPRPRPRPIWIPRP	-0.32
RRIRRRPPRLPRPRPRPIYAPRP	3.39
RRIRRRPPRLPRPRPRPIYTPRP	-0.176
RRIRRRPPRLPRPRPRPKCGPRP	0.0229
RRIRRRPPRLPRPRPRPKDIPRP	-0.193

Sequence	shrunken log2 fold change
RRIRRRPPRLPRPRPRPKEAPRP	0.0205
RRIRRRPPRLPRPRPRPKEFPRP	0.0689
RRIRRRPPRLPRPRPRPKFQPRP	-0.00642
RRIRRRPPRLPRPRPRPKGTPRP	0.25
RRIRRRPPRLPRPRPRPKHFPRP	0.3
RRIRRRPPRLPRPRPRPKHWPRP	0.334
RRIRRRPPRLPRPRPRPKILPRP	-0.199
RRIRRRPPRLPRPRPRPKKLPRP	0.166
RRIRRRPPRLPRPRPRPKLMPRP	0.178
RRIRRRPPRLPRPRPRPKMAPRP	0.201
RRIRRRPPRLPRPRPRPKMFPRP	-0.131
RRIRRRPPRLPRPRPRPKMLPRP	0.161
RRIRRRPPRLPRPRPRPKMRPRP	0.733
RRIRRRPPRLPRPRPRPKMWPRP	0.216
RRIRRRPPRLPRPRPRPKPIPRP	0.357
RRIRRRPPRLPRPRPRPKPVPRP	0.191
RRIRRRPPRLPRPRPRPKRIPRP	0.191
RRIRRRPPRLPRPRPRPKRYPRP	0.00167
RRIRRRPPRLPRPRPRPKSGPRP	-0.0499
RRIRRRPPRLPRPRPRPKSVPRP	0.0439
RRIRRRPPRLPRPRPRPKSWPRP	0.249
RRIRRRPPRLPRPRPRPKSYPRP	0.171
RRIRRRPPRLPRPRPRPKTDPRP	0.163
RRIRRRPPRLPRPRPRPKTMPRP	0.348
RRIRRRPPRLPRPRPRPKTTPRP	0.0923

Sequence	shrunken log2 fold change
RRIRRRPPRLPRPRPRPKVMPRP	0.16
RRIRRRPPRLPRPRPRPKVTPRP	-0.131
RRIRRRPPRLPRPRPRPKWFPRP	-0.0159
RRIRRRPPRLPRPRPRPKWHPRP	0.593
RRIRRRPPRLPRPRPRPKYEPRP	0.811
RRIRRRPPRLPRPRPRPKYLPRP	-0.042
RRIRRRPPRLPRPRPRPKYSPRP	-0.124
RRIRRRPPRLPRPRPRPLACPRP	0.491
RRIRRRPPRLPRPRPRPLAMPRP	-0.0111
RRIRRRPPRLPRPRPRPLCDPRP	0.422
RRIRRRPPRLPRPRPRPLCYPRP	-0.236
RRIRRRPPRLPRPRPRPLDPPRP	0.5
RRIRRRPPRLPRPRPRPLFMPRP	0.0797
RRIRRRPPRLPRPRPRPLGGPRP	0.376
RRIRRRPPRLPRPRPRPLGMPRP	0.471
RRIRRRPPRLPRPRPRPLHPPRP	0.437
RRIRRRPPRLPRPRPRPLIIPRP	-0.376
RRIRRRPPRLPRPRPRPLIVPRP	-0.0866
RRIRRRPPRLPRPRPRPLKAPRP	0.785
RRIRRRPPRLPRPRPRPLKDPRP	-0.152
RRIRRRPPRLPRPRPRPLLGPRP	0.504
RRIRRRPPRLPRPRPRPLLVPRP	0.329
RRIRRRPPRLPRPRPRPLQVPRP	0.000182
RRIRRRPPRLPRPRPRPLRFPRP	0.836
RRIRRRPPRLPRPRPRPLRIPRP	0.724

Sequence	shrunken log2 fold change
RRIRRRPPRLPRPRPRPLTWPRP	0.845
RRIRRRPPRLPRPRPRPLVYPRP	-0.325
RRIRRRPPRLPRPRPRPLYCPRP	-0.115
RRIRRRPPRLPRPRPRPMAGPRP	0.111
RRIRRRPPRLPRPRPRPMCHPRP	-0.191
RRIRRRPPRLPRPRPRPMCVPRP	-0.0364
RRIRRRPPRLPRPRPRPMDDPRP	0.211
RRIRRRPPRLPRPRPRPMDEPRP	0.0223
RRIRRRPPRLPRPRPRPMDMPRP	0.0833
RRIRRRPPRLPRPRPRPMDPPRP	0.139
RRIRRRPPRLPRPRPRPMDTPRP	0.229
RRIRRRPPRLPRPRPRPMDWPRP	0.516
RRIRRRPPRLPRPRPRPMEKPRP	0.096
RRIRRRPPRLPRPRPRPMFAPRP	0.24
RRIRRRPPRLPRPRPRPMFQPRP	0.155
RRIRRRPPRLPRPRPRPMGGPRP	0.083
RRIRRRPPRLPRPRPRPMHWPRP	0.148
RRIRRRPPRLPRPRPRPMIAPRP	0.121
RRIRRRPPRLPRPRPRPMISPRP	0.044
RRIRRRPPRLPRPRPRPMMWPRP	0.487
RRIRRRPPRLPRPRPRPMNFPRP	0.154
RRIRRRPPRLPRPRPRPMNSPRP	-0.101
RRIRRRPPRLPRPRPRPMRHPRP	1.18
RRIRRRPPRLPRPRPRPMRYPRP	0.236
RRIRRRPPRLPRPRPRPMTWPRP	-0.154

Sequence	shrunken log2 fold change
RRIRRRPPRLPRPRPRPMVVPRP	0.00307
RRIRRRPPRLPRPRPRPMYDPRP	-0.267
RRIRRRPPRLPRPRPRPMYKPRP	-0.0524
RRIRRRPPRLPRPRPRPMYPPRP	-0.197
RRIRRRPPRLPRPRPRPNAIPRP	-0.116
RRIRRRPPRLPRPRPRPNANPRP	0.58
RRIRRRPPRLPRPRPRPNCHPRP	-0.0432
RRIRRRPPRLPRPRPRPNCNPRP	-0.0828
RRIRRRPPRLPRPRPRPNDEPRP	-0.0407
RRIRRRPPRLPRPRPRPNDLPRP	-0.0791
RRIRRRPPRLPRPRPRPNDTPRP	-0.115
RRIRRRPPRLPRPRPRPNECPRP	0.0616
RRIRRRPPRLPRPRPRPNEEPRP	0.0468
RRIRRRPPRLPRPRPRPNEIPRP	-0.0559
RRIRRRPPRLPRPRPRPNHQPRP	-0.0677
RRIRRRPPRLPRPRPRPNIDPRP	-0.0882
RRIRRRPPRLPRPRPRPNIEPRP	0.0519
RRIRRRPPRLPRPRPRPNKFPRP	-0.246
RRIRRRPPRLPRPRPRPNKSPRP	-0.0615
RRIRRRPPRLPRPRPRPNNKPRP	-0.24
RRIRRRPPRLPRPRPRPNPEPRP	0.302
RRIRRRPPRLPRPRPRPNPRPRP	1.11
RRIRRRPPRLPRPRPRPNQMPRP	0.388
RRIRRRPPRLPRPRPRPNRIPRP	0.0217
RRIRRRPPRLPRPRPRPNRNPRP	0.0469

Sequence	shrunken log2 fold change
RRIRRRPPRLPRPRPRPNRSPRP	0.339
RRIRRRPPRLPRPRPRPNRYPRP	-0.365
RRIRRRPPRLPRPRPRPNSLPRP	-0.652
RRIRRRPPRLPRPRPRPNSWPRP	-0.0571
RRIRRRPPRLPRPRPRPNVAPRP	0.304
RRIRRRPPRLPRPRPRPNWAPRP	0.164
RRIRRRPPRLPRPRPRPNWQPRP	0.00842
RRIRRRPPRLPRPRPRPNYGPRP	0.00704
RRIRRRPPRLPRPRPRPNYKPRP	-0.232
RRIRRRPPRLPRPRPRPPAFPRP	1.08
RRIRRRPPRLPRPRPRPPAPPRP	1.13
RRIRRRPPRLPRPRPRPPARPRP	0.762
RRIRRRPPRLPRPRPRPPAVPRP	0.606
RRIRRRPPRLPRPRPRPPCKPRP	0.492
RRIRRRPPRLPRPRPRPPDMPRP	0.432
RRIRRRPPRLPRPRPRPPEAPRP	0.493
RRIRRRPPRLPRPRPRPPEHPRP	0.14
RRIRRRPPRLPRPRPRPPELPRP	-0.0467
RRIRRRPPRLPRPRPRPPENPRP	0.615
RRIRRRPPRLPRPRPRPPFPPRP	0.645
RRIRRRPPRLPRPRPRPPFRPRP	0.631
RRIRRRPPRLPRPRPRPPFYPRP	0.463
RRIRRRPPRLPRPRPRPPHSPRP	0.916
RRIRRRPPRLPRPRPRPPHYPRP	1.15
RRIRRRPPRLPRPRPRPPIRPRP	2.1
